From PMC6370319 (Cell reports, 2019)
Substitutions are numbered along the chain they refer to. Numbers in names are those of the source.

B1: FNIP1-D-His6 (domain or fragment)
chain: TEWDIPRNESSDSALGDSESEDTGHDMTRQVSSYYGGEQEDWAEEDEIPFPGSKLIEVSAVQPNIANFGRSLLGGYCSSYVPDFVLQGIGSDERFRQCLMSDLSHAVQHPVLDEPIAEAVCIIADMDKWTVQVASSQRRVTDNKLGKEVLVSSLVSNLLHSTLQLYKHNLSPNFCVMHLEDRLQELYFKSKMLSEYLRGQMRVHVKELGVVLGIESSDLPLLAAVASTHSPYVAQILL
B2: FNIP1-D-His6 S938A (domain or fragment)
chain: B1 chain with S10A
B3: FNIP1-D-His6 S939A (domain or fragment)
chain: B1 chain with S11A
B4: FNIP1-D-His6 S941A (domain or fragment)
chain: B1 chain with S13A
B5: FNIP1-D-His6 S948A (domain or fragment)
chain: B1 chain with S20A
B6: FNIP1-D-His6 S946A (domain or fragment)
chain: B1 chain with S18A

biological target: Hsp90α (UniProt P07900); assay: FNIP1-FLAG IP from yeast, Hsp90α blot; conditions: reference: wild type FNIP1-FLAG; sites S948

Molecule | binding against the reference
FNIP1 (from UniProt Q8TF40) S948A | weaker

biological target: T1, OGT-FLAG (human, UniProt O15294-3 1-1036); assay: pull-down; conditions: not given
T1 sequence: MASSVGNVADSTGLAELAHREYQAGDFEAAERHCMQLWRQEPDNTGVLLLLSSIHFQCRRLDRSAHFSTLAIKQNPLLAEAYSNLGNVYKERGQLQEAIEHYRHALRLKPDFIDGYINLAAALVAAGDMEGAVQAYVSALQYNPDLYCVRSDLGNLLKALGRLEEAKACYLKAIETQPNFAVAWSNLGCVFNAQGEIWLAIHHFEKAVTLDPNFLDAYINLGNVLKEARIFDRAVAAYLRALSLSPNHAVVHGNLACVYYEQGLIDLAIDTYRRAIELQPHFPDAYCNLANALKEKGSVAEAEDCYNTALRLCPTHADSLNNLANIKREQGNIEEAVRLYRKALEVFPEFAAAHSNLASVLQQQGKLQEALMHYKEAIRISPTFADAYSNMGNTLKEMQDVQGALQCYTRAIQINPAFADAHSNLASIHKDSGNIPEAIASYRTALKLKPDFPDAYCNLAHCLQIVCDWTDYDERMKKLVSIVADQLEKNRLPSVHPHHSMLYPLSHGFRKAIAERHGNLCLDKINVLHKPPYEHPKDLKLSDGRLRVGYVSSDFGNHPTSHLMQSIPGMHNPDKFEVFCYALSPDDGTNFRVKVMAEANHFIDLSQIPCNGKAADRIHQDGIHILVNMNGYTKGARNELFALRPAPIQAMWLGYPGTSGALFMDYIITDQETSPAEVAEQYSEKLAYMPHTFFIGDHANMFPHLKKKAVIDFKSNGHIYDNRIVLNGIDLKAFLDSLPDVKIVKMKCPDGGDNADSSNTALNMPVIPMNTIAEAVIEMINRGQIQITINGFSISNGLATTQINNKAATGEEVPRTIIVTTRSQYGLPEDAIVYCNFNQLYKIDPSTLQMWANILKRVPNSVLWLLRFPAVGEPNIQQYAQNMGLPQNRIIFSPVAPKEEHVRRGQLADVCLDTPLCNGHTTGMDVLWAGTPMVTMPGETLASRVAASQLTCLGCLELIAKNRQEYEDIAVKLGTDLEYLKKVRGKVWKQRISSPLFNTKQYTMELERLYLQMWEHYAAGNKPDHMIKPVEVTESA

Molecule | binding result
B1 | binds
B2 | binds
B3 | binds
B4 | binds
B5 | binds
B6 | binds
